The values that follow come from patent publication US20130324409A1 (University of California, published 2013).

For data set [1], the target named is T1, PYL4 6×His-tagged protein.
T1 chain: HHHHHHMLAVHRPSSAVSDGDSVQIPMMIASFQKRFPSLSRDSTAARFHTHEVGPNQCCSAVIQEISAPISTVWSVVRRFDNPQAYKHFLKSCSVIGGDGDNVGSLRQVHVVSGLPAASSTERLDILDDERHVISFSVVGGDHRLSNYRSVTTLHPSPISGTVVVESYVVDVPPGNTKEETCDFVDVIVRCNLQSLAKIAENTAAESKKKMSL

In data set [2] the target is T2, GST-HAB1 (Arabidopsis, UniProt Q9CAJ0 23-511).
T2 sequence (looked up): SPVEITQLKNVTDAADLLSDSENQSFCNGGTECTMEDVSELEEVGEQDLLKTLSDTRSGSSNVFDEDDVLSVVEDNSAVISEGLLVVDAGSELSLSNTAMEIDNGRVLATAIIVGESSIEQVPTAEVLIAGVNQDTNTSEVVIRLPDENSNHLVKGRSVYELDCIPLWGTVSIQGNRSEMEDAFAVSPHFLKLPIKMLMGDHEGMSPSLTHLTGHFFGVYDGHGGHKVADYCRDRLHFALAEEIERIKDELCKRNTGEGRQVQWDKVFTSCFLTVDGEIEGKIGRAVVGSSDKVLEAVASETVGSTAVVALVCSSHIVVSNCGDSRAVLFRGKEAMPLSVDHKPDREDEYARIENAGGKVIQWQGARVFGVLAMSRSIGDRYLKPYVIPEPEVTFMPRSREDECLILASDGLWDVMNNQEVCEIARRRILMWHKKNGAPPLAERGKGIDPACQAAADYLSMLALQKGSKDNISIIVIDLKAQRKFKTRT
As to the kind of experiment: cell-based or functional assay.

Data set [3] has as its target T3, ABI2 (yeast two-hybrid construct) (UniProt O04719 1-423).
T3 construct: also called wild type ABI2; cDNA U24491
T3 sequence (looked up): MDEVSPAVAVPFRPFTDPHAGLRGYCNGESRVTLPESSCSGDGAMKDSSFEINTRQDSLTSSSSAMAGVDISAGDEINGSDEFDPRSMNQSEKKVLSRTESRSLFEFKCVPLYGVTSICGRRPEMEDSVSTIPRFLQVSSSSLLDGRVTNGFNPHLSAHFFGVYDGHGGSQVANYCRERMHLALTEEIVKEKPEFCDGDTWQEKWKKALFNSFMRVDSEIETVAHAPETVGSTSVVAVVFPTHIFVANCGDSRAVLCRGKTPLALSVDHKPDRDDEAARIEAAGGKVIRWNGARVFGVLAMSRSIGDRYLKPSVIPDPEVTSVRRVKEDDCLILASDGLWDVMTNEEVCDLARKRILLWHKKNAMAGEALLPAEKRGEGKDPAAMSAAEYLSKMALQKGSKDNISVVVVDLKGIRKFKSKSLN
As to the kind of experiment: yeast two-hybrid.

For data set [4], the target named is T4, ABI2^G168D encoded by abi2-1 (yeast two-hybrid construct) (UniProt O04719 1-423).
T4 construct: ABA insensitive mutant protein; also called mutant protein encoded by abi2-1
T4 sequence (looked up): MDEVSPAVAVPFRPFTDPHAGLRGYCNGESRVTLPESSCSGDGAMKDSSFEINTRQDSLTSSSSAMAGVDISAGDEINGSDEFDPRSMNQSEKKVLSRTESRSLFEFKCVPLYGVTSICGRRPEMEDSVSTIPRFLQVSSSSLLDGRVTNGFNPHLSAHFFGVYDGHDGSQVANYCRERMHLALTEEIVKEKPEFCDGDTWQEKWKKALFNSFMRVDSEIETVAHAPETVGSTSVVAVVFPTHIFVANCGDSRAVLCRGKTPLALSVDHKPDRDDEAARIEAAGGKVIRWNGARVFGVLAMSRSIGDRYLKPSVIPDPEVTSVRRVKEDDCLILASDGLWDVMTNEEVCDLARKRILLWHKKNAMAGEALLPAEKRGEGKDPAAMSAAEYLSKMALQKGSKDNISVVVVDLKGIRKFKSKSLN
As to the kind of experiment: yeast two-hybrid.

The target in data set [5] is T5, ABI1 (yeast two-hybrid construct) (UniProt P49597 1-434).
T5 construct: also called wild type ABI1; cDNA C104649
T5 sequence (looked up): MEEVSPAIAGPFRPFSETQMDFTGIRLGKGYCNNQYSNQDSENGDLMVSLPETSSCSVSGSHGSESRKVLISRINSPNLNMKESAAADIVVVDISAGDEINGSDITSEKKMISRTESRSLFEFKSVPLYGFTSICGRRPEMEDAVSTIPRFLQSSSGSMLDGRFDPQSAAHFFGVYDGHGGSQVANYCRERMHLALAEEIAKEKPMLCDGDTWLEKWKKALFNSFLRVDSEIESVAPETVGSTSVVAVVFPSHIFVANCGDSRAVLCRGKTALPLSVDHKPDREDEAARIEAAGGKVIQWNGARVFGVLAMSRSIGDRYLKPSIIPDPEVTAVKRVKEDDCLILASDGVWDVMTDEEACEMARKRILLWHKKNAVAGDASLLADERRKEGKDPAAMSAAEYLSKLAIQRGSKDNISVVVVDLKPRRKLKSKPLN
The experiment in a line: yeast two-hybrid.

Data set [6] addresses T6, GST-ABI2 (UniProt O04719 1-423).
T6 construct: Used as cleared E. coli lysate in the pull-downs; not shown: glutathione S-transferase (GST)
T6 sequence (looked up): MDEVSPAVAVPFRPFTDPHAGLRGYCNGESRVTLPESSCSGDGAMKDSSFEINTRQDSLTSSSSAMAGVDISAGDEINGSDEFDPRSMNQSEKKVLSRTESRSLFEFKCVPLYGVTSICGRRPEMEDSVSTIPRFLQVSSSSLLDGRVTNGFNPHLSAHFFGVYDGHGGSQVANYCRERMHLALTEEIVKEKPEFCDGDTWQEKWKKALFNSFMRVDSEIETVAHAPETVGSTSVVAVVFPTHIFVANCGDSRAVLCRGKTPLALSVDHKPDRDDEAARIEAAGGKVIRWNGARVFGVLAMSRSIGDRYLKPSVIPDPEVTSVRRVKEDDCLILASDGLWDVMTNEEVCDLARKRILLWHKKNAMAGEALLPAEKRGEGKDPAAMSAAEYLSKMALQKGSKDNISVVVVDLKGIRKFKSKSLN
As to the kind of experiment: His-tag pull-down, E. coli lysate holding the PP2C. The protocol:
(§1) To explore the functional implications of the PYR1-PP2C interaction, we examined if an ABA response could be reconstituted in vitro. Recombinant GST-HAB1, GST-ABI1 and GST-ABI2 were expressed in E. coli and tested for ligand-dependent interactions with 6×His-PYR1 in pull-down assays. Purified 6×His-PYR1 and GST-HAB1 (20 and 100 μg respectively, 8 μM PYR1 final concentration), were combined in 100 μl TBS containing 10 μM (+)-ABA or 1% DMSO for negative control. The reaction was incubated for 90 minutes at RT and 5 μl of PrepEase (USB) His-tagged protein purification resin was added. The resin and reaction mixture was incubated 30 min at RT with gentle shaking at 5 min intervals. The resin was washed five times with TBS containing 10 μM (+)-ABA. After the final wash, the bound protein was eluted in 20 μl SDS-PAGE buffer, boiled for 5 minutes and centrifuged. 5 μl of eluate was analyzed on SDS-PAGE. For pull-downs with ABI1 and ABI2, crude lysates were used in a similar method, except purified PP2C was replaced with cleared E. coli lysates. The amount of lysate added was determined by SDS-page analysis to yield ˜100 μg PP2C, such that the same stoichiometry was used as in assays using purified proteins.

Data set [7] has as its target T7, GST-ABI1 (UniProt P49597 1-434).
T7 construct: Used as cleared E. coli lysate in the pull-downs; not shown: glutathione S-transferase (GST)
T7 sequence (looked up): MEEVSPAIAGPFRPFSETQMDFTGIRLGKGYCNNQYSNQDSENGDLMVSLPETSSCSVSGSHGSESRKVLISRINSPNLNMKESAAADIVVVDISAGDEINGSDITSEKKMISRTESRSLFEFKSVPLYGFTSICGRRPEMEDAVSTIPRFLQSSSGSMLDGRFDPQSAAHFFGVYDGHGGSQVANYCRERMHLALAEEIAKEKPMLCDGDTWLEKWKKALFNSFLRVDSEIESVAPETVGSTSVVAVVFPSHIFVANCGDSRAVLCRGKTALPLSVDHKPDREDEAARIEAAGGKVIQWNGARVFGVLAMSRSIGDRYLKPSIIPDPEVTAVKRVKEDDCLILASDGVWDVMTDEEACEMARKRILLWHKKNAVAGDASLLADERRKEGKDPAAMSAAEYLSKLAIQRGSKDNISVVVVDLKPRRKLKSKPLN
The experiment in a line: His-tag pull-down, E. coli lysate holding the PP2C. The protocol: as §1

B1: GST-HAB1 (protein)
chain: SPVEITQLKNVTDAADLLSDSENQSFCNGGTECTMEDVSELEEVGEQDLLKTLSDTRSGSSNVFDEDDVLSVVEDNSAVISEGLLVVDAGSELSLSNTAMEIDNGRVLATAIIVGESSIEQVPTAEVLIAGVNQDTNTSEVVIRLPDENSNHLVKGRSVYELDCIPLWGTVSIQGNRSEMEDAFAVSPHFLKLPIKMLMGDHEGMSPSLTHLTGHFFGVYDGHGGHKVADYCRDRLHFALAEEIERIKDELCKRNTGEGRQVQWDKVFTSCFLTVDGEIEGKIGRAVVGSSDKVLEAVASETVGSTAVVALVCSSHIVVSNCGDSRAVLFRGKEAMPLSVDHKPDREDEYARIENAGGKVIQWQGARVFGVLAMSRSIGDRYLKPYVIPEPEVTFMPRSREDECLILASDGLWDVMNNQEVCEIARRRILMWHKKNGAPPLAERGKGIDPACQAAADYLSMLALQKGSKDNISIIVIDLKAQRKFKTRT
As to B1, the “HAB1 phosphatase activity (substrate pNPP)” value in data set [1] was “(+)-ABA inhibits HAB1 phosphatase activity in the presence of PYL4”.

B2: 6×His-PYR1 (receptor, not shown: small tags and cut ends)
chain: MPSELTPEERSELKNSIAEFHTYQLDPGSCSSLHAQRIHAPPELVWSIVRRFDKPQTYKHFIKSCSVEQNFEMRVGCTRDVIVISGLPANTSTERLDILDDERRVTGFSIIGGEHRLTNYKSVTTVHRFEKENRIWTVVLESYVVDMPEGNSEDDTRMFADTVVKLNLQKLATVAEAMARNSGDGSGSQVT
For the molecule B2, the “IC50 of (+)-ABA for inhibition of HAB1 phosphatase activity (substrate pNPP) in the presence of PYR1” value in data set [2] is 0.18 µM.

B3: BD-PYR1 fusion protein (receptor, not shown: large carriers; small tags and cut ends)
chain: MPSELTPEERSELKNSIAEFHTYQLDPGSCSSLHAQRIHAPPELVWSIVRRFDKPQTYKHFIKSCSVEQNFEMRVGCTRDVIVISGLPANTSTERLDILDDERRVTGFSIIGGEHRLTNYKSVTTVHRFEKENRIWTVVLESYVVDMPEGNSEDDTRMFADTVVKLNLQKLATVAEAMARNSGDGSGSQVT
notes: Pyr1 open reading frame cloned in frame into pBD-GAL4 Cam, expressed in yeast Y190; also called PYR1 Y2H bait construct; PYRABACTIN … 1
Consider B3, for which the figures for the binding result in data set [3], in data set [4] and in data set [5] were “binds”, “no binding” and “binds”, respectively.

B4: 6×His-PYR1^P88S (receptor)
chain: MPSELTPEERSELKNSIAEFHTYQLDPGSCSSLHAQRIHAPPELVWSIVRRFDKPQTYKHFIKSCSVEQNFEMRVGCTRDVIVISGLSANTSTERLDILDDERRVTGFSIIGGEHRLTNYKSVTTVHRFEKENRIWTVVLESYVVDMPEGNSEDDTRMFADTVVKLNLQKLATVAEAMARNSGDGSGSQVT
notes: also called pyr1-3 mutant protein; not shown: 6×His tag and vector residues of pET28
For the molecule B4, the binding result in data set [6] and in data set [7] was “no binding (tested: 10 µM (+)-ABA)” each time.
